T1: human MSLN-R1-his protein (human, UniProt Q13421 296-390)
T1 construct: also called hMSLN-R1-his; human MSLN-R1 protein; not shown: His tag
T1 chain: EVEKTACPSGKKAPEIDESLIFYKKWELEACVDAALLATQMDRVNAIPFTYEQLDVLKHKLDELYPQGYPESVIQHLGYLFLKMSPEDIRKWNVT


Key:
[1] = target: T2, human MSLN-FL-his protein (human, UniProt Q13421 296-580); test: competitive ELISA; coated 2ug/ml F3.23.1
T2 construct: made in HEK293E cells, purified on nickel column; also called hMSLN-FL-his; human MSLN full-length protein; not shown: His tag
T2 sequence (Q13421 other isoform, or with tags, fused parts or gaps): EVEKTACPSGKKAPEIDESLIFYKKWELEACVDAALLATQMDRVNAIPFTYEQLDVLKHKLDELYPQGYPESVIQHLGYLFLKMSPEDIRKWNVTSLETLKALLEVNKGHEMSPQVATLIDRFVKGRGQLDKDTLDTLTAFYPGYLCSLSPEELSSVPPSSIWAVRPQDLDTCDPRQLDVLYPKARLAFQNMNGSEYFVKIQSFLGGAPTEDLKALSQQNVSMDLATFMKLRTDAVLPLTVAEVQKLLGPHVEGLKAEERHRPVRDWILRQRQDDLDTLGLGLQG

[2] = target: T2, human MSLN-FL-his protein; test: competitive ELISA; coated 2ug/ml F3.45.21
Protocol: (§1) In order to identify antigen-binding sites of antibodies, MSLN chimeric antibodies were grouped using competitive ELISA.
(§2) The chimeric antibodies were diluted to 2 μg/mL with PBS and allowed to coat 96-well high-adsorption ELISA plates at 50 μL/well. After the plates were coated at 4° C. overnight, 250 μL of a blocking buffer (PBS containing 2% (w/w) BSA) was added for two hours of blocking at room temperature. 40 μg/mL of the antibodies to be tested were added, and then the human MSLN-FL-His protein with an EC₈₀ concentration corresponding to each of the antibodies to be tested was added for incubation for 2 h. The plates were washed 5 times with PBS, an HRP-labeled anti-His secondary antibody (purchased from Genescript, Cat. No. A00612) was then added for incubation for 1 h, and the plates were washed 5 times again. A TMB substrate was added at 50 μL/well, and after 10 minutes of incubation at room temperature, a stop solution (1.0 M HCl) was added at 50 μL/well. OD₄₅₀ nm values were read using an ELISA plate reader (Insight, purchased from PerkinElmer), and the competition rate between the antibodies was calculated according to the OD₄₅₀ nm values using a formula.

[3] = target: T2, human MSLN-FL-his protein; test: competitive ELISA; coated 2ug/ml F4-127.10
Protocol: as §1, §2

[4] = target: T2, human MSLN-FL-his protein; test: competitive ELISA; coated 2ug/ml F3.80.22
Protocol: as §1, §2

[5] = target: T2, human MSLN-FL-his protein; test: competitive ELISA; coated 2ug/ml Tab142 (R1)
Protocol: as §1, §2

[6] = target: T2, human MSLN-FL-his protein; test: competitive ELISA; coated 2ug/ml F3.74.20
Protocol: as §1, §2

[7] = target: T2, human MSLN-FL-his protein; test: SPR (Biacore), antibody captured on Protein A chip;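 note: measured at 25 °C, analyte injected 240 s in five twofold dilutions from 200 nM, dissociation up to 600 s, double-referenced, fitted with Langmuir 1:1 model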
[8] = target: T2, human MSLN-FL-his protein; test: competitive ELISA; coated 2ug/ml F3.51.8
Protocol: as §1, §2

[9] = target: T2, human MSLN-FL-his protein; test: competitive ELISA; coated 2ug/ml Tab108 (R3)
Protocol: as §1, §2

[10] = target: T3, human MSLN-FL-his protein (human, UniProt Q13421 296-580); test: ELISA, coated antigen; antibody 100 nM
T3 construct: also called hMSLN-FL-his; human MSLN full-length protein; not shown: His tag
Target sequence in this assay (Q13421 other isoform, or with tags, fused parts or gaps): as above

[11] = target: T1, human MSLN-R1-his protein; test: ELISA, coated antigen; antibody 1 nM
Protocol: (§3) The plate was sealed with a plastic film and incubated at 4° C. overnight. The next day, the plate was washed twice with PBST, and a blocking buffer [PBS+2% (w/w) BSA] was added for blocking at room temperature for 2 h. The blocking buffer was discarded, and a chimeric antibody or negative control antibody serially diluted from 100 nM was added at 50 μL/well. After incubation at 37° C. for 2 h, the plate was washed 3 times with PBST. […] After incubation at 37° C. for 2 h, the plate was washed 5 times with PBST. A TMB substrate was added at 50 μL/well for incubation at room temperature for 5-10 min, and then a stop solution (1.0 N HCl) was added at 50 μL/well.

[12] = target: T3, human MSLN-FL-his protein; test: ELISA, coated antigen; no antibody (blank, column 'none')
Protocol: as §3

[13] = target: T1, human MSLN-R1-his protein; test: ELISA, coated antigen; antibody 10 nM
Protocol: as §3

[14] = target: T3, human MSLN-FL-his protein; test: ELISA, coated antigen; antibody 0.01 nM
Target sequence in this assay (Q13421 other isoform, or with tags, fused parts or gaps): as above
Protocol: as §3

[15] = target: T3, human MSLN-FL-his protein; test: ELISA, coated antigen; antibody 0.001 nM
Target sequence in this assay (Q13421 other isoform, or with tags, fused parts or gaps): as above
Protocol: as §3

[16] = target: T1, human MSLN-R1-his protein; test: ELISA, coated antigen; antibody 0.001 nM
Protocol: as §3

[17] = target: T1, human MSLN-R1-his protein; test: ELISA, coated antigen; antibody 0.0001 nM
Protocol: as §3

[18] = target: T1, human MSLN-R1-his protein; test: ELISA, coated antigen; antibody 0.01 nM
Protocol: as §3

[19] = target: T1, human MSLN-R1-his protein; test: ELISA, coated antigen; antibody 100 nM
Protocol: as §3

[20] = target: T3, human MSLN-FL-his protein; test: ELISA, coated antigen; antibody 1 nM
Target sequence in this assay (Q13421 other isoform, or with tags, fused parts or gaps): as above
Protocol: as §3

[21] = target: T3, human MSLN-FL-his protein; test: ELISA, coated antigen; antibody 0.0001 nM
Target sequence in this assay (Q13421 other isoform, or with tags, fused parts or gaps): as above
Protocol: as §3

[22] = target: T3, human MSLN-FL-his protein; test: ELISA, coated antigen; antibody 10 nM
Protocol: as §3

[23] = target: T3, human MSLN-FL-his protein; test: ELISA, coated antigen; antibody 0.1 nM
Protocol: as §3

[24] = target: T1, human MSLN-R1-his protein; test: ELISA, coated antigen; antibody 0.1 nM
Protocol: as §3

[25] = target: T1, human MSLN-R1-his protein; test: ELISA, coated antigen; no antibody (blank, column 'none')
Protocol: as §3

competition rate [1]	competition rate [2]	competition rate [3]	competition rate [4]	competition rate [5]	competition rate [6]	Kd [7]	koff [7]	kon [7]	competition rate [8]	competition rate [9]	Binder	further results
101%	98%	78%	-17%	-34%	101%	142 nM	0.00035 s⁻¹	2470 M⁻¹ s⁻¹	102%	46%	S009-F3.51.8 (antibody, human IgG1, kappa, V domains shown, human-murine chimeric antibody, human IgG1/kappa constant regions) VH: QVQLQQSGAELVRPGASVTLSCKASGYTFTDYEMHWVKQTPVHGLEWIGGFDPETGGTAHNQKFKGKAILTADKSSSTAYMELRSLTSEDSAVYYCSNYGSIWGDCWGQGTSVTVSS VL: not shown	
99%	92%	37%	-26%	-38%	96%	1.5 nM	0.00083 s⁻¹	552000 M⁻¹ s⁻¹	96%	32%	S009-F3.45.21 (antibody, human IgG1, kappa, V domains shown, human-murine chimeric antibody, human IgG1/kappa constant regions) VH: DVQLQESGPGLVKPSQSLSLTCSVTGDSITSGYYWNWIRQFPGNKLEWMGFIRFDGTNNYNPSLKNRISITRDTSKNQFFLKLNSVTTEDTATYYCAREGSYAPAWFAYWGQGTLVTVSA VL: QIVLTQSPAIMSASPGEKVTMTCSASSSLSYMYWYQQKPGSSPRLLIYDTSNLASGVPVRFSGSGSGTSYSLTISRMEAEDAATYYCQQWSSYPPTFGGGTKLEIKR	
											S009-F1.62.9 human-murine chimeric antibody (antibody, human IgG1, kappa, V domains shown, Chimeric IgG1/kappa) VH: EVQLQQSGADLVKPGASVKLSCTVFGLNFKDTFMHWVRQRPEQGLEWIGRIDPANDNSIYGPKFQDKATITADTSSNTAYLHLSSLTSEDTAVYYCLYFDNWGHGTTLTVSS VL: DIVMTQAASSEPVTPGESVSISCRSDKSLLHSNGHNYLYWFLQRPGQSPHLLIYRMSNLASGVPDRFSGSGSGTAFTLRISRVEAEDVGVYYCMQHLEYPLTFGAGTKLELKR	OD450 [10]: 2.61; OD450 [11]: 0.04; OD450 [12]: 0.05; OD450 [13]: 0.04; OD450 [14]: 0.48; OD450 [15]: 0.11; OD450 [16]: 0.04; OD450 [17]: 0.04; OD450 [18]: 0.05; OD450 [19]: 0.06; OD450 [20]: 2.35; OD450 [21]: 0.06; OD450 [22]: 2.59; OD450 [23]: 1.79; OD450 [24]: 0.04; OD450 [25]: 0.05
95%	89%	31%	-36%	-25%	93%	689 nM	0.000703 s⁻¹		94%	35%	S009-F3.23.1 (antibody, human IgG1, kappa, V domains shown, human-murine chimeric antibody, human IgG1/kappa constant regions) VH: QVQLQQSGADLVRPGASVTLSCKASGYTFTDYEMHWVKQTPVHGLEWIGAIDPETGDTVYNQNFKGKAILTADKSSSTAYMELRSLTSEDSAVYYCTRYGYDWGWGQGTTLTVSS VL: not shown	
100%	94%	33%	-15%	-28%	98%	4.92 nM	5.04e-05 s⁻¹	10300 M⁻¹ s⁻¹	96%	34%	S009-F3.74.20 (antibody, human IgG1, kappa, V domains shown, human-murine chimeric antibody, human IgG1/kappa constant regions) VH: RVQLQQSGAELVRPGASVTLSCKASGYTFTDSEMHWVKQTPVHGLEWIGAIDPEIDGTAYNQNFRDKAILTADKSSSTAYMELRSLTSEDSAVYYCTTYFGSGYGYFDVWGTGTTVTVSS VL: DVVMTQTPLSLSVSLGDQASISCRSSQSLVYSNGNTYLHWFLQKPGQSPKLLIYKVSNRFSGVPDRFSGSGSGTDFTLKINRVEAEDLGVYFCSQSTHIPFTFGAGTKLELKR	
88%	84%	16%	-5%	-27%	91%	171 nM	0.000433 s⁻¹	2530 M⁻¹ s⁻¹	87%	-37%	S009-F4-127.10 (antibody, human IgG1, kappa, V domains shown, human-murine chimeric antibody, human IgG1/kappa constant regions) VH: EVQLQQSGPVLVKPGASVKMSCKASGYTFTDYYMNWVKQSHGKSPEWIGVINPYNDVISYNQKFKGKATLTVDKSSSTAYMELNSLTSEDSAVYYCANYGSSYYAMDYWGQGTSVTVSS VL: DVVMTQTPLSLSVSLGDQASISCRSSQSLVHSNGNTYLQWSLQKPGQSPNLLIYKVSNRFSGVPDRFSGSGSGTDFTLKISRVEAEDLGVYFCSQTTHVPFTFGGGTKLEIRR	
-109%	-67%	-22%	63%	81%	-12%	151 nM	0.000332 s⁻¹	2200 M⁻¹ s⁻¹	43%	35%	S009-F3.80.22 (antibody, human IgG1, kappa, V domains shown, human-murine chimeric antibody, human IgG1/kappa constant regions) VH: QVQLQQSGAELVRPGASVTLSCKASGYTFTDYEIHWVKQTPVHGLEWIGAFDPEIGGSAYNQKFKDRATLTADKSSSTAYMELHSLTAEDSAVYYCTDYYGSSSGYFDVWGTGTTVTVSS VL: DVVMTQTPLSLPVSLGDQASISCRSSQSLEHNNGNTYLHWFLHKPGQSPKLLIYKVSNRFSGVPDRFSGSGSGTDFTLKISRVEAEDLGVYFCSQSTHVPFTFGSGTKLEIKR	

From US20250250357A1 (NANJING ZAIMING PHARMACEUTICAL, published 2025)
